From the DeepSol protein solubility set

Test: soluble on expression in E. coli; label from the status in PepcDB or PDB records

Soluble on expression in E. coli, not soluble:
MGSDKIHHHHHHMSGGSSMTDQGWAMKGELVLSCNCTVFCPCVLSLGNHAPTEGYCQTWAGFRIDAGHFGEVDLSGLNLGLIMEIPGYMSRGNWTAGLFIDKRASIYAVKALTKIFTGKAGGTTSLLSILVGKFLPITYETRDKMRIFQIPKIIDGAVTPIAGKDREKDTVITNSEYWIAPEIIVARSDKSKMRAFGRNWNFAGRSAEICKLDWRGP
MGSDKIHHHHHHMSIAIRRDEEIALSCHGVSKSFVISGEQNIWRMFCALPVRGEVFAALRDVSLEVPRGKIVGILGRNGAGKSTLLRVLGGVYQPTSGTVDVHGQVCGLFEMGGFGNRELSGREYATRYLTVMGAPRKDRGDLLADIAEFSELGADFDRKILTYSAGMAARLYFSTATAMRHEIYLIDELLSVGDEHFQAKCWIRMRNLLLNGASGILVTHDWVSTLKLCQQSHILERGSIVASGRTDAAVVKYLDLPVPDGALARFCDSDRATWHAVAGEDAVFEFDIESEEDIPLVFTYSVELMRIGIGWDIMLLGQRPIGSGNGRRRVQLKVPALPLAPGEYSLTVGLIKEKTRAEDEAVICDARGWTTGNGYVLEVSGTLEQGTTILPMEISGWIDD
MGSDKIHHHHHHMSIDTITLQCFLAVAETQSFTKAAQRVGRTQSAISQQIAKLENLIEKPLINRGRELSLTTDGEIFLGYAKRIYELHRESLDRFKAPELQGEIRFGLPEDFASIILSDVLVEFSRLHPRVLLNVECDLTLNLIERFNEGKFDLILIKTTQQQVGSESIYVCTEPVEWIGKKELLPLLDKPGPIPLVLSPTPCVYRGNVIDTLDKNHIDWRLVYSSASYAGKMAAVRAGLGITAIQRSMIPNYLERLDYDFLPILNDVHVSLLKKSGSNKAIESLEFFILQKLKY
MGSDKIHHHHHHMSIEAKFKKLGTDNAPGQEVRQSAAGLEALIRGAPIEGRPVDFSHGDVDAHEPTPGAFDLFSAGVQSGGVQAYTEYRGDLGIRDLLAPRLAAFTGAPVDARDGLIITPGTQGALFLAVAATVARGDKVAIVQPDYFANRKLVEFFEGEMVPVQLDYVSADETRAGLDLTGLEEAFKAGARVFLFSNPNNPAGVVYSAEEIGQIAALAARYGATVIADQLYSRLRYAGASYTHLRAEAAVDAENVVTIMGPSKTESLSGYRLGVAFGSRAIIARMEKLQAIVSLRAAGYSQAVLRGWFDEAPGWMEDRIARHQAIRDELLHVLRGCEGVFARTPQAGSYLFPRLPKLAVAPAEFVKILRLQAGVVVTPGTEFSPHTADSVRLNFSQDHEAAVAAARRIVTLVERYRA
MGSDKIHHHHHHMSIINDEKLRKYVPEERLDKVKERLEILDTYDLSYITSNFIWKGRRFSPEQVWPIKIYYGKADRELAEKIEKEFRRFVALTIVFPKRLFTASGAVDLYWHFLILHTKEYEKFSKSVWGIPRYDNVLLKKLLNNDDNSFRLRFNLKPDNVNEITILPKKALESLDDKTLDRVLMLERLDLSPISENLLHTIDEFKFVPEQRFPLIAHFGKLDNNIVKRIELEFKKWMALNIAYGGKELNYAAPSGVVDMYFHLFILHTILYKQFCEIFFGKFIHHPLGELF
MGSDKIHHHHHHMSILTVENVSHSYGEKTILYNACFRLLKGEHVGLVGQNGIGKSTLLKILTGELIHDEGNIEWFPHVKVGFLQQHIDLQEGITIEGYLQSAFADLYVIECEMLKIAEEMNGAGEVEKLLVKYGELQTILESSNFYHIHTEVEEVAIGLGLFEIGLKKDVSKLSGGQRTKLLLGKLLLEKADVLLLDEPTNYLDTAHIEWLQSYLRLYEKAYVIISHDELFLNSITNVIFHLEGGKVKRYVGNYEKFVQSYQVQKKQLQSAYVKQQKEISQLETFIQKNKIRKAKQAKSREKVLEKMQRIEKIHPVPRSRFDFNVYEEPVSRILQAEKLRIGYSDPLCPELNLQVKKGEKIAIIGHNGIGKTTMLKTLLGQIKPLSGSISVGERVNPAYFAQEEFASETTPLEKVWAERPDMTKKEVRQALAKCGLKEEHVLKPIRLLSGGEQTKVRLCELIVKKSNVLILDEPTNHLDIETKKALQEALQRYRGTVLLVSHEPSFYEAWITKVWNIEEWNAEQYE
MGSDKIHHHHHHMSILVPEQVREALDVHVVSFLGGRLNKHWLVDVCGHKLVLRRWAADREDAGYERDLRQAIRASGWPVARDVTALTEIAGELWSLAEFLPGEPHPEKNSAAELSLRGRLMAEFHQVTASLNPGRRKHWRLPDEILSDDHLEQVFEHCPDVRLRRLLFWHLQRGRQLAAGLPWSEQSLQLIHGDFTPWNLLYREGQLSGLLDCEMSRPEYRISEFALSWRGRYDALIHAYHAVSPLSAPEWNMLTPAWWALLLEGAYRNLVSGTEDQGWTAGMLLRRSPLMGIESCPC
MGSDKIHHHHHHMSISQMQVFNKYFMPAIIETLGQQIQKFNAASRGAIMLTTAGFEGDFLQESFYQAIHGARRRVDRYAANGSASPTDLTQLKHSSVKVAGGFGPIRYEPSQMTWLEKPTAEGIEVASRHFAEALLQDQLNTAIAALVAAISNQALATVNVSAKTGLNYSVLNDAHAKFGDSSGLIVANVMSGQVYHKLIGQNLVNAQQLFEYGAVTVVDILGKTVVVTDAPALYATGTPNLQKVLGLVAGAATVSDGGDLITNIETSNGKERIETTFQADYTFGLGLKGYTWDEATGGKSPTDAELATGTNWDKVATDIKHTAGVIAIGDASK
MGSDKIHHHHHHMSKFHELTVASVTRETRDAVAVTFAVPEDLADTYRYVQGQHLTLRAGIGGEDVRRSYSICSAVQDRRLRVAIKRVDGGMFSNWANDALQPGMTLEVMPPSGHFHVPLSDTHSKHYVAFAAGSGITPMLSIIKTTLMTEPDSRFTLFYGNRASSSVLFKEELEDLKDTYLERFNLVFILSREQLDIDLFNGRIDGEKVRALLRHWVRPQDIDVAFICGPHSMMEEVSQALQENGVDKARIKRELFATSIPAARPAAHAHKQLGQQQCEVTVIQDGRTRQFTLEKNKETILDAALAQGIELPYSCKGGVCSTCRCKRIEGEVDMDVNFALEDYEVARGFILSCQSYAVTDKLVIDFDQET
MGSDKIHHHHHHMSKILMVGSGPVAIQLARLCNLHGEHMVDMVSRVHASTKSKRVFDAYHRDGFFSVMTQNDAHQCFSGKFTVRHFFKDVKDITQYYDVVILACTADAYRPILQQLSKSTLKRIKQIILVSPTLGSHMLVKQILSDVHCEGEVISFSTYLGDTRIFDKAQPHCVLTTRVKSKLFVGSTHSQSITLYKLKSLFDYLNIELTTMDTPLHAEIHNSSLYVHPPLFMNQFSLKAVFEGTKVPVYVYKLFPEGPITMTLIHEMRLMWQEMMMILKKLKVPSVNLLKFMVKENYPIRDETMREVDIESFENLSAIHQEYLLYVRYTAILIDPFSNPDDQGAYFDFSAVPYKHVDTDEQGVIHIPRMPSEDYYRTLMIQAIGRALNVATPMIDTMLLRYETTVKQYCDTHLHQQLSKQFELHHFKQDLALVTNYLTFYR
MGSDKIHHHHHHMSLDNHYDVDAALDKALKDDFLRKATRRATDRLRNNKLAITEELGNWEEWRQVGERIRNHVVENLDYYLDMLIENVEKNGGHVHLAKTPEDGVRIVQEIFQKHGFKSVIKSKSMITEEIHLNPVLEKDGIEVVETDLAEYIIQIADEPPSHIIVPAMHKTREQIAKLFEPIAGHPLESDTPTLTKFAREQLREKFLTSKIGITGCNFAVADTGTITMVTNEGNGRLTSTMPEVQITMMGMERIVPSYKELSVLLNLLARSATGQRLSVYTTMITPPKREGDIDGPKEWHLVILDHNRSEILGDEDFRSSLRCIRCGACFNVCPVYRQVGGHAYGSVYSGPIGVVITPLLEQNYEKWGHLPYYSSLCAACSEACPVRIPLQDLIVKHRDRKVLKGYTSGVEKKIFKYYGYYFSHPKTLSKFVRLGSKFQFILMRNGRIASGPPPLSNWTNSKTLPPVAKQMFRDQWPELEKKLKTMQRGDQ
MGSDKIHHHHHHMSLFAALRLPREILFGKGQRHALSTVAGRFGRHALVCTDERFAGTAVFAEIVQSLQAASIEVLVHDRVLPDVPRDSVGICVDEAEKFQPEMVIGIGGGSCLDFAKCADLLLSHGGKLQDYYGEFKVPGPTLPLIAVPTTAGTGSEVTPVAVISDPDRTLKVGISSPYLIAAVALCDPELTMTCPPALTAIAGADALTHAIEAFTAKQRGEDPSLAQQHVFIGKTALTDHFALLAIKLLGRSLEKACTDGTDADARADVMMGALAAGCAFGTAGTAAAHAVQYPAGALTHTAHGLGVATMMPYVMTYNSRVVAAEMAEIGDALGLEAKGRSAEEMADATIKEIRRLFTAIGITPTLADLGLPADKLDWTADQALGIDRLIKNNPRPFDLTAMRRLVQAAHDGDLAACAM
MGSDKIHHHHHHMSLSPQASAAPEQGYNFAYLDEQTKRMIRRGLLKAVAIPGYQVPFGGREMPLPYGWGTGGMQVTAAILGADDVLKVIDQGADDTTNAVSIRRFFARTAGVATTERTPEATVIQTRHRIPETALSGEQIMVYQVPIPEPLRFIEPSEAETRTMHALDDYGVMHVKLYEDIATFGHIATSYAYPVTVDERYVMDPSPIPKFDNPKLDMNPALMLFGAGREKRLYAVPPFTRVASLDFEDHPFEVQRWEESCAFCGSHESYLDELIVDDRGGKRFVCSDTDYCTQRRARQEEGEDAQ
MGSDKIHHHHHHMSNANPSRLGMVNGTGADDALFLKVFGGEVLTTFAENNVFLPLTMSRTITSGKSAQFPVLGKNTAYYHVPGAELNGNNILNAERVITVDGLLVSPVFIAKIDEAKTHYDVRSQYTSECGASLSNQADRTISQVLINAARSTATITGGFGGTKLVDAAFGTDGDKLAAGIFGIAQTFDEKDVPETDRYAAVRPAQYYLMVAGTKVLNRDWGGSGSYMDGKVLKVAGVSIVKSNHIPKSVITGSAQAAYDGDFTKTVAVGFHKSAVGTVKLLDLQTEGEYQIQRQGTLIVAKYAMGHGVLRPEAAVELASA
MGSDKIHHHHHHMSNHSSSIPELSDNGIRYYQTYNESLSLWPVRCKSFYISTRFGQTHVIASGPEDAPPLVLLHGALFSSTMWYPNIADWSSKYRTYAVDIIGDKNKSIPENVSGTRTDYANWLLDVFDNLGIEKSHMIGLSLGGLHTMNFLLRMPERVKSAAILSPAETFLPFHHDFYKYALGLTASNGVETFLNWMMNDQNVLHPIFVKQFKAGVMWQDGSRNPNPNADGFPYVFTDEELRSARVPILLLLGEHEVIYDPHSALHRASSFVPDIEAEVIKNAGHVLSMEQPTYVNERVMRFFNAETGISR
MGSDKIHHHHHHMSNRKINPFVVTGKIEPEYFCDRESESARLIKSIANGNNSVVISPRRMGKTGLIQFCYDKEEIGRNYYTFFIDILHTSSLREFTYLLGREIYETLLPQSKKMINLFVRTLKSISGRFGFDPVSGMPTFGIELGDIEHPEYTLEEIFRYLADADRPCIVAIDEFQQIAKYPEKNIEALLRTHIQKLRNCNFIFAGSERHMMQEMFASAARPFYHSADMLELKAIEADVYIPFIVGHFEKRDRSISPDDAARVYRLFKGHTFYIQKTFNEAFADTPEGEVCTPEIIESAIDNMIASNDTIFREILSNIPEKQKTLLYAIAKEGEAERITSTGFIKRHNLISASSVQSAANKLLDKDIITEINKVYCVTDKLFAMWINTLYGTKDFWRMTSRP
MGSDKIHHHHHHMSNSSRLSVASNSQDATSPLRLLVLSNGHGEDVIAVRILQELQRQSNPPEIFALPLVGEGRAYQQLEIPLIGSVRTMPSGGFIYMDGRQLARDVRGGLLQLTLSQIKAVRRWVSSQKKLGNKRAILAVGDIVPLLFATFSGANYAFVGTAKSEYYVRDEAGLLPRKSKDARWENFSGSVYHPWERWLMSRRRCKAVFPRDVLTTETLKQWPIPAFNLGNPMMDGLQPTFSRQQFYSRDSHQQETVRPLMVTLLPGSRPPEAYTNWEKIMIAVSALMASFQERDSVFYTSGTVVFLGAIAPGLDSNILSQSVQSQGWRAESVCPIQLPDPNILTFKQRNAYLLLTQQSYNDCLHLGDFAIAMAGTATEQFIGLGKPAIAIPGNGPQYNPAFAEAQSRHLGSSLILVEQPAEVAEIVQSLFKDPDILQIIAENGLRRMGKPGAALRIAECLQERLS
